# Entries after “also recorded” stand apart in the source; their conditions may differ. Bridge positions count the residues as written; N and C are the ends. Square brackets hold non-standard residues; d marks the D form. Ends that are not written are not given here. 1Nal = N[C@@H](Cc1cccc2ccccc12)C(=O)O; Sar = CNCC(=O)O
# Assays:
# [1] = Pharmacology studies in animals, stimulation of erythropoiesis; format: in vivo, mice; rats, dogs, rabbits and monkeys
# [2] = Pharmacokinetic studies in rats; format: in vivo; settings: species not stated
# [3] = Phase 1 single IV dose study in normal healthy volunteers, pharmacodynamics; format: in vivo, human
# Text: (§1) Peptide I has been tested in […] in one Phase 1 study. This first-in-human study with Peptide I was a randomized, double-blind, placebo-controlled, single-dose, IV, escalating dose, safety and tolerability trial. The primary objectives of the study were to evaluate the safety and pharmacokinetics of Peptide I, and to establish a pharmacologically active dose (PAD). Cohorts of seven male volunteers were scheduled to receive single doses of Peptide I or placebo in a 5:2 ratio. Cohorts were to be added at increasing dose levels until a PAD, as determined by an increase in hemoglobin from baseline values, was observed, at which point the dose level identified as the PAD would be repeated in another cohort of volunteers.
# (§2) The study was initiated in four cohorts were enrolled in a consecutive manner at Peptide I doses of 0.025, 0.05, 0.1 mg/kg, and […], respectively (single dose per cohort). […] As such, the study was terminated.
# [4] = Phase 1 single IV dose study in normal healthy volunteers, pharmacokinetics; format: in vivo, human; settings: dose normalized, ANOVA
# Text: as §1, §2
# In the 0.025 mg/kg dose group, Peptide I concentration peaked between 5 and 15 minutes, while tmax approached 1 hour for the 0.1 mg/kg dose.
# [5] = Phase 1 single IV dose study in normal healthy volunteers, safety; format: in vivo, human
# Text: as §1, §2
# [6] = Phase II multi-dose once-monthly SC study in pre-dialysis chronic kidney disease patients; format: in vivo, human
# Procedure: A multi-center, open-label, sequential dose-finding phase II clinical trial involving patients with chronic kidney disease was performed in order to evaluate the safety and pharmacodynamics of multiple doses of once-monthly (Q4W) subcutaneous (SC) delivery of Peptide I (SEQ ID NO:2). A total of 60 erythropoiesis-stimulating-agent-naïve, pre-dialysis, chronic kidney disease (CKD) patients [hemoglobin (Hgb) levels 9.0-10.9 g/dL, ferritin >100 ug/L and transferrin saturation (TSAT)>20%] were enrolled into three dose cohorts. Patients received up to six once-monthly SC drug doses. The starting doses were 0.025 mg/kg (n=15), 0.050 mg/kg (n=30) and 0.075 mg/kg (n=15). Dose titration was allowed after the first dose, based on patient Hgb levels.
# Dose titrations were allowed after the patient's initial dose. Dose adjustments were ±25% of the previous dose, depending on the patient's measured hemoglobin (Hgb) level.
substance,measurement,setting,value
"PEGylated homodimer of peptide monomers (AcG)GLYACHMGPIT(1-nal)VCQPLR(MeG)K (SEQ ID NO: 2); fully synthetic EPO receptor agonist (Ac-GGLYACHMGPIT[1Nal]VCQPLR[Sar]K; disulfide 6-15 (inferred); not fully specified (residue 1); printed as (AcG)GLYACHMGPIT(1-nal)VCQPLR(MeG)K; also: homodimer via branched linker on K21 ε-amino group, PEG attached to linker) [Peptide I]",rise in reticulocytes and RBCs as measured by hemoglobin levels,[1]; rats and monkeys,dose proportional
same,stimulation of erythropoiesis,"[1]; single or repeat dose, mice, rats (normocythemic and nephrectomized), dogs, rabbits, monkeys",dose-dependent activity
same,Biodistribution,[2],primarily to the plasma fraction
same,increase in hemoglobin associated with the PAD,[3]; 0.1 mg/kg,≥ 1.0 g/dL
same,average maximum increase in hemoglobin from baseline,"[3]; 0.1 mg/kg, 10 recipients",1.36 ± 0.39 g/dL
same,average hemoglobin levels at Day 42,"[3]; 0.1 mg/kg, Day 42",returned to baseline
same,difference in change from baseline hemoglobin versus placebo,"[3]; 0.1 mg/kg, Day 42 as throughout the study",≥ 0.5 g/dL
same,time of maximum reticulocyte counts postdose,[3]; all dose cohorts,approximately 7 days
same,"changes in other pharmacodynamic parameters (red cell count, hematocrit, ferritin, reticulocyte hemoglobin content, soluble transferrin receptor, EPO)","[3]; human, in vivo",consistent with stimulation of erythropoiesis
same,hemoglobin response and change from baseline (mean and maximum),[3]; over 28 days post-dose,dose-dependent increases
same,Reticulocyte count (absolute number and percent),"[3]; single IV 0.025, 0.05, 0.1 mg/kg",dose-dependent increase
same,pharmacologically active dose (PAD),"[3]; single IV dose, NHV",0.1 mg/kg
same,Serum EPO levels,[3]; with increasing dose,transiently decreased
same,AUC(0-infinity) relationship with dose,[4],evidence of non-linearity at the highest dose of 0.1 mg/kg; also recorded: nonlinear at the 0.1 mg/kg dose
same,"abdominal pain, frequency",[5]; Peptide I recipients,10.0%
same,"headache, frequency",[5]; Peptide I recipients,20.0%
same,"nasopharyngitis, frequency",[5]; Peptide I recipients,10.0%
same,"nausea, frequency",[5]; Peptide I recipients,10.0%
same,subjects who experienced adverse events,[5]; Peptide I recipients,11 of 20
same,Serious Adverse Events,"[5]; human, in vivo",no Serious Adverse Events
same,antibodies specific to Peptide I,"[5]; human, in vivo",None of the subjects in this trial developed antibodies
same,"vital signs, electrocardiograms (ECGs) or laboratory values","[5]; human, in vivo",no clinically significant changes
same,safety and tolerability,"[5]; single IV doses of 0.025, 0.05, or 0.1 mg/kg",safe and well tolerated
same,patients reporting adverse events,[6]; 60 patients,18%
same,injection site reaction,[6]; SC,no injection site reaction was reported
same,hemoglobin (Hgb) increase,[6]; dosed monthly,sustained increase in hemoglobin (Hgb) up to week 22
same,number of adverse events,"[6]; human, in vivo",36
same,relation of adverse events to study drug,"[6]; human, in vivo",not related to study drug
same,tolerability of multiple monthly subcutaneous injections,"[6]; human, in vivo, sc",well-tolerated
same,correction of anaemia,[6]; monthly dosing,correction of anaemia in patients by week eight
